Assay results published in patent publication CN117858904A (dated 2024).

Assays:
[1] = target: T1, 食蟹猴CD47抗原 cynoCD47(ARCO), Cynomolgus/Rhesus CD47 protein, Fc Tag, cat. CD7-C5252 (cynomolgus monkey / rhesus monkey); experiment: BLI (Octet Red384), as in Example 3, cynoCD47-Fc on AR2G sensor, antibody as analyte, mean of three measurements
T1 construct: Commercial protein

[2] = target: T2, 人PD-L1抗原 (human PD-L1 antigen) (human, UniProt Q9NZQ7 19-238, limits assumed); experiment: BLI (Octet Red384), as in Example 3, human PD-L1 antigen on AR2G sensor, antibody as analyte, mean of three measurements
T2 construct: also called 专有PD-L1抗原
T2 sequence (Q9NZQ7 19-238 limits assumed): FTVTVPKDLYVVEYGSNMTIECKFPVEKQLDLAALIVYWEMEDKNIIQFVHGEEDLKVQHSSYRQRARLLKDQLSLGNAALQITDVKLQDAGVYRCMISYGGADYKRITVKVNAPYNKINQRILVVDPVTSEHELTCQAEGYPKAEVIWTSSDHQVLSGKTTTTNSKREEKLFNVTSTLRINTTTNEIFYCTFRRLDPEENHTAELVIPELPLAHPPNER

[3] = target: 人CD47抗原 CD47-FcLama (human CD47 antigen) (human, UniProt Q08722 19-139); experiment: BLI (Octet Red384), CD47-FcLama covalently on AR2G sensor, antibody as analyte (68.9, 34.4, 17.2 nM), 1:1 global fit, mean of three measurements
人CD47抗原 CD47-FcLama (human CD47 antigen), sequence (Q08722 19-139): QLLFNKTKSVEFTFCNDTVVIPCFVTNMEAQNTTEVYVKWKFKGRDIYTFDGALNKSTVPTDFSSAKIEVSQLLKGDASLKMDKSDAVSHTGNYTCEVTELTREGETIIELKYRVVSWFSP

B1: 双特异性抗体09-001 (bispecific antibody 09-001, binds CD47 and PD-L1, common light chain) (bispecific antibody, human IgG1, lambda, L234A L235A)
heavy 1: not shown
light: QTVVTQEPSLSVSPGGTVTLTCGLSSGTVTAINYPGWYQQTPGQAPRTLIYNTNTRHSGVPDRFSGSISGNKAALTITGAQAEDEADYYCALYMGNGGHMFGGGTKLTVLGQPKAAPSVTLFPPSSEELQANKATLVCLISDFYPGAVTVAWKADSSPVKAGVETTTPSKQSNNKYAASSYLSLTPEQWKSHRSYSCQVTHEGSTVEKTVAPTECS
heavy 2: EVQLVESGGGVVRPGGSLRLSCAASGFTFDDYAMSWVRQAPGKGLEWVSDISWSGSNTNYADSVKGRFTISRDNAKNSLYLQMNSLRAEDTALYHCARAPLLLAMTFGVGSWGQGTLVTVSSASTKGPSVFPLAPSSKSTSGGTAALGCLVKDYFPEPVTVSWNSGALTSGVHTFPAVLQSSGLYSLSSVVTVPSSSLGTQTYICNVNHKPSNTKVDKKVEPKSCDGPGGTCPPCPAPEAAGGPSVFLFPPKPKDTLMISRTPEVTCVVVDVSHEDPEVKFNWYVDGVEVHNAKTKPREEQYNSTYRVVSVLTVLHQDWLNGKEYKCKVSNKALPAPIEKTISKAKGQPREPQVCTLPPSREEMTKNQVSLSCAVKGFYPSDIAVEWESNGQPENNYKTTPPVLDSDGSFFLVSKLTVDKSRWQQGNVFSCSVMHEALHNHYTQKSLSLSPGK
- Kd [1]: 57 nM
- Kd [2]: 2.54 nM
- Kd [3]: 82.5 nM
